Values quoted from earlier work as cited in PMC6994236.

Legend:
[1] = biological target: PSD-95 PDZ1-3 (Rattus norvegicus) (UniProt P31016); test: surface plasmon resonance
[2] = biological target: PSD-95 PDZ3 (Rattus norvegicus) (UniProt P31016); test: surface plasmon resonance
Chain of PSD-95 PDZ3 (Rattus norvegicus) (P31016 310-396): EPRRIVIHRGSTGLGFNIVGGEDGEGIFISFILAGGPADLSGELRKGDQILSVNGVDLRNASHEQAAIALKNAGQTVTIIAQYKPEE

Chain of PSD-95 PDZ1-3 (Rattus norvegicus) (P31016 61-393): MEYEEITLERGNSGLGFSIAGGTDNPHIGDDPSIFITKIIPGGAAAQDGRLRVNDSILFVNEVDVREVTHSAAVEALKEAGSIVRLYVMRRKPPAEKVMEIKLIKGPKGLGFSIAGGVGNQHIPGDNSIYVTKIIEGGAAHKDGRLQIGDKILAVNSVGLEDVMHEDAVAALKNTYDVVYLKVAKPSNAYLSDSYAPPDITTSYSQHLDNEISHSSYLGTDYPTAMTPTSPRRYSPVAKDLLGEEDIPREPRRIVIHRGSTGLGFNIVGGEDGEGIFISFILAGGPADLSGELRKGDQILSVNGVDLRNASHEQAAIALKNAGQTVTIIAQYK

Kd [1]: 5 nM | Kd [2]: 650 nM
Substance: synGAP lacking first 100 residues (from UniProt Q9QUH6)
